# Assay results from patent US20110301073.
# Experiments:
# [1] = test system: TALEN 101126 (synthetic (Xanthomonas TALE)); assay: cell_activity; conditions: paired with 101124
# [2] = test system: TALEN 101237 (NK half repeat) (synthetic (Xanthomonas TALE)); assay: cell_activity; conditions: paired with 101236
# [3] = test system: RPD1 TALEN 101391 (synthetic (Xanthomonas TALE)); assay: cell_activity; conditions: paired with 101390; site given 3'-5', reversed here
# [4] = test system: TALEN 101238 (HD half repeat) (synthetic (Xanthomonas TALE)); assay: cell_activity; conditions: paired with 101236; 8.1% with 101235
# [5] = test system: TALEN 101167 (synthetic (Xanthomonas TALE)); assay: cell_activity; conditions: paired with 101239; 5.3% with 101166
# [6] = test system: R0-VP16 (no tandem repeats) (Xanthomonas sp. (engineered)); assay: cell_activity; conditions: no tandem repeats
# [7] = test system: nR23570S-dNC (17.5 repeats without N- and C-caps) (Xanthomonas sp. (engineered)); assay: cell_activity; conditions: mock 1.48; caps deleted
# [8] = test system: TALEN 101240 (HD half repeat) (synthetic (Xanthomonas TALE)); assay: cell_activity; conditions: paired with 101239; 10.7% with 101166
# [9] = test system: TALEN 101141 (HD half repeat) (synthetic (Xanthomonas TALE)); assay: cell_activity; conditions: paired with 101139
# [10] = test system: TALEN 101166 (synthetic (Xanthomonas TALE)); assay: cell_activity; conditions: paired with 101240; 5.3% with 101167
# [11] = test system: TALEN 101151 (synthetic (Xanthomonas TALE)); assay: cell_activity; conditions: paired with 101233
# [12] = test system: RPD1 TALEN 101389 (synthetic (Xanthomonas TALE)); assay: cell_activity; conditions: paired with 101393; Neuro 2A
# [13] = test system: TALE13 C+11 FokI (Xanthomonas axonopodis); assay: cleavage_in_vitro; conditions: two sites, 12 bp spacer
# [14] = test system: TALE13 C+17 FokI (Xanthomonas axonopodis); assay: cleavage_in_vitro; conditions: two sites, 12 bp spacer
# [15] = test system: TALE13 C+5 FokI (Xanthomonas axonopodis); assay: cleavage_in_vitro; conditions: two sites, 12 bp spacer
# [16] = test system: TALE13 C-2 FokI (Xanthomonas axonopodis); assay: cleavage_in_vitro; conditions: two sites, 12 bp spacer
# [17] = test system: TALEN 101156 (synthetic (Xanthomonas TALE)); assay: cell_activity; conditions: paired with 101230
# [18] = test system: TALE test backbone, repeat 5 RVD AA (synthetic (Xanthomonas TALE)); conditions: ELISA
# [19] = test system: TALE test backbone, repeat 5 RVD AD (synthetic (Xanthomonas TALE)); conditions: ELISA
# [20] = test system: TALE test backbone, repeat 5 RVD AE (synthetic (Xanthomonas TALE)); conditions: ELISA
# [21] = test system: TALE test backbone, repeat 5 RVD AN (synthetic (Xanthomonas TALE)); conditions: ELISA
# [22] = test system: TALE test backbone, repeat 5 RVD AT (synthetic (Xanthomonas TALE)); conditions: ELISA
# [23] = test system: TALE test backbone, repeat 5 RVD DH (synthetic (Xanthomonas TALE)); conditions: ELISA
# [24] = test system: TALE test backbone, repeat 5 RVD DK (synthetic (Xanthomonas TALE)); conditions: ELISA
# [25] = test system: TALE test backbone, repeat 5 RVD GG (synthetic (Xanthomonas TALE)); conditions: ELISA
# [26] = test system: TALE test backbone, repeat 5 RVD HA (synthetic (Xanthomonas TALE)); conditions: ELISA
# [27] = test system: TALE test backbone, repeat 5 RVD HD, standard framework (SEQ 333) (Xanthomonas sp. (engineered)); conditions: RVD HD
# [28] = test system: TALE test backbone, repeat 5 RVD HG (synthetic (Xanthomonas TALE)); conditions: ELISA
# [29] = test system: TALE test backbone, repeat 5 RVD HI (Xanthomonas sp. (engineered)); conditions: RVD HI
# [30] = test system: TALE test backbone, repeat 5 RVD HN (synthetic (Xanthomonas TALE)); conditions: ELISA
# [31] = test system: TALE test backbone, repeat 5 RVD IA (synthetic (Xanthomonas TALE)); conditions: ELISA
# [32] = test system: TALE test backbone, repeat 5 RVD IG (synthetic (Xanthomonas TALE)); conditions: ELISA
# [33] = test system: TALE test backbone, repeat 5 RVD IP (synthetic (Xanthomonas TALE)); conditions: ELISA
# [34] = test system: TALE test backbone, repeat 5 RVD KD (synthetic (Xanthomonas TALE)); conditions: ELISA
# [35] = test system: TALE test backbone, repeat 5 RVD KG (synthetic (Xanthomonas TALE)); conditions: ELISA
# [36] = test system: TALE test backbone, repeat 5 RVD KI (Xanthomonas sp. (engineered)); conditions: RVD KI
# [37] = test system: TALE test backbone, repeat 5 RVD KS (synthetic (Xanthomonas TALE)); conditions: ELISA
# [38] = test system: TALE test backbone, repeat 5 RVD KT (synthetic (Xanthomonas TALE)); conditions: ELISA
# [39] = test system: TALE test backbone, repeat 5 RVD LA (synthetic (Xanthomonas TALE)); conditions: ELISA
# [40] = test system: TALE test backbone, repeat 5 RVD NA (synthetic (Xanthomonas TALE)); conditions: ELISA
# [41] = test system: TALE test backbone, repeat 5 RVD ND (synthetic (Xanthomonas TALE)); conditions: ELISA
# [42] = test system: TALE test backbone, repeat 5 RVD NG (Xanthomonas sp. (engineered)); conditions: RVD NG
# [43] = test system: TALE test backbone, repeat 5 RVD NI (Xanthomonas sp. (engineered)); conditions: RVD NI
# [44] = test system: TALE test backbone, repeat 5 RVD NN (Xanthomonas sp. (engineered)); conditions: RVD NN
# [45] = test system: TALE test backbone, repeat 5 RVD NS (synthetic (Xanthomonas TALE)); conditions: ELISA
# [46] = test system: TALE test backbone, repeat 5 RVD PW (Xanthomonas sp. (engineered)); conditions: RVD PW; 0.00 on all four bases
# [47] = test system: TALE test backbone, repeat 5 RVD QA (synthetic (Xanthomonas TALE)); conditions: ELISA
# [48] = test system: TALE test backbone, repeat 5 RVD QG (synthetic (Xanthomonas TALE)); conditions: ELISA
# [49] = test system: TALE test backbone, repeat 5 RVD RA (synthetic (Xanthomonas TALE)); conditions: ELISA
# [50] = test system: TALE test backbone, repeat 5 RVD RG (synthetic (Xanthomonas TALE)); conditions: ELISA
# [51] = test system: TALE test backbone, repeat 5 RVD RI (synthetic (Xanthomonas TALE)); conditions: ELISA
# [52] = test system: TALE test backbone, repeat 5 RVD SG (synthetic (Xanthomonas TALE)); conditions: ELISA
# [53] = test system: TALE test backbone, repeat 5 RVD SN (synthetic (Xanthomonas TALE)); conditions: ELISA
# [54] = test system: TALE test backbone, repeat 5 RVD TA (synthetic (Xanthomonas TALE)); conditions: ELISA
# [55] = test system: TALE test backbone, repeat 5 RVD TP (synthetic (Xanthomonas TALE)); conditions: ELISA
# [56] = test system: TALE test backbone, repeat 5 RVD VG (synthetic (Xanthomonas TALE)); conditions: ELISA
# [57] = test system: TALE test backbone, repeat 5 RVD YG (synthetic (Xanthomonas TALE)); conditions: ELISA
# [58] = test system: TALEN 101235 (HD half repeat) (synthetic (Xanthomonas TALE)); assay: cell_activity; conditions: paired with 101238
# [59] = test system: TALEN 101234 (HD half repeat) (synthetic (Xanthomonas TALE)); assay: cell_activity; conditions: paired with 101231
# [60] = test system: RPD1 TALEN 101388 (synthetic (Xanthomonas TALE)); assay: cell_activity; conditions: paired with 101391; Neuro 2A
# [61] = test system: TALEN 101124 (synthetic (Xanthomonas TALE)); assay: cell_activity; conditions: paired with 101126
# [62] = test system: TALEN 101139 (synthetic (Xanthomonas TALE)); assay: cell_activity; conditions: paired with 101141
# [63] = test system: TALEN 101231 (NI half repeat) (synthetic (Xanthomonas TALE)); assay: cell_activity; conditions: paired with 101234
# [64] = test system: TALEN 101236 (HD half repeat) (synthetic (Xanthomonas TALE)); assay: cell_activity; conditions: paired with 101238; 2.5% with 101237
# [65] = test system: TALEN 101233 (NI half repeat) (synthetic (Xanthomonas TALE)); assay: cell_activity; conditions: paired with 101151
# [66] = test system: RPD1 TALEN 101390 (synthetic (Xanthomonas TALE)); assay: cell_activity; conditions: paired with 101391; printed site lacks one A relative to the locus
# [67] = test system: TALEN 101239 (HD half repeat) (synthetic (Xanthomonas TALE)); assay: cell_activity; conditions: paired with 101167; 11.2% with 101240
# [68] = test system: RPD1 TALEN 101393 (synthetic (Xanthomonas TALE)); assay: cell_activity; conditions: paired with 101389; site given 3'-5', reversed here
# [69] = test system: TALEN 101230 (HD half repeat) (synthetic (Xanthomonas TALE)); assay: cell_activity; conditions: paired with 101156
sequence,measurement,setting,value
GACCCTGCCTGCT (double strand) [101126 site],activity,[1],2.2 % NHEJ
CGGGGATGATCTACGG (double strand) [101237 site],activity,[2],2.5 % NHEJ
TGGGAGTGTTGCAT (double strand) [101391 site],activity (relative DLSSA units),[3],9.7
CGGGGATGATCTAC (double strand) [101238 site],activity,[4],9.2 % NHEJ
CGTTGCCCCCGCCCT (double strand) [101167 site],activity,[5],13.1 % NHEJ
GGAGCCATCTGGCCGGGT (double strand) [NT-L target (NTF3 promoter)],activity (fold activation),[6],1
same,activity (fold activation),[7],1.96
GAATCGTTGCCCCCGC (double strand) [101240 site],activity,[8],11.2 % NHEJ
TCCTAGAAGGGCAGGC (double strand) [101141 site],activity,[9],6.7 % NHEJ
GAGCGGCCCCGCCCGT (double strand) [101166 site],activity,[10],10.7 % NHEJ
CCGCACCCCCAGCT (double strand) [101151 site],activity,[11],13.3 % NHEJ
TTATTTGAAGAAACTAT (double strand) [101389 site],activity (relative DLSSA units),[12],9.9
TATAAATACCTTCT (double strand) [TALE13 target],activity,[13],98.5 % cleavage
same,activity,[14],97.8 % cleavage
same,activity,[15],99.3 % cleavage
same,activity,[16],1.1 % cleavage
TACCGCTGTGCTCCT (double strand) [101156 site],activity,[17],4.9 % NHEJ
TTGACAATCCT (double strand) [CAA target],binding signal (normalized ELISA),[18],0.34
same,binding signal (normalized ELISA),[19],0.02
same,binding signal (normalized ELISA),[20],0
same,binding signal (normalized ELISA),[21],0.51
same,binding signal (normalized ELISA),[22],1.29
same,binding signal (normalized ELISA),[23],0.01
same,binding signal (normalized ELISA),[24],0
same,binding signal (normalized ELISA),[25],0.49
same,binding signal (normalized ELISA),[26],0.46
same,binding signal (normalized ELISA),[27],0.15
same,binding signal (normalized ELISA),[28],0.38
same,binding signal (normalized ELISA),[29],0.67
same,binding signal (normalized ELISA),[30],0.5
same,binding signal (normalized ELISA),[31],0.15
same,binding signal (normalized ELISA),[32],0.04
same,binding signal (normalized ELISA),[33],0.04
same,binding signal (normalized ELISA),[34],0.06
same,binding signal (normalized ELISA),[35],0.47
same,binding signal (normalized ELISA),[36],0.75
same,binding signal (normalized ELISA),[37],0.95
same,binding signal (normalized ELISA),[38],1
same,binding signal (normalized ELISA),[39],0.02
same,binding signal (normalized ELISA),[40],0.59
same,binding signal (normalized ELISA),[41],0.06
same,binding signal (normalized ELISA),[42],0.48
same,binding signal (normalized ELISA),[43],0.6
same,binding signal (normalized ELISA),[44],0.47
same,binding signal (normalized ELISA),[45],0.51
same,binding signal (normalized ELISA),[46],0
same,binding signal (normalized ELISA),[47],0.2
same,binding signal (normalized ELISA),[48],0.21
same,binding signal (normalized ELISA),[49],0.73
same,binding signal (normalized ELISA),[50],0.32
same,binding signal (normalized ELISA),[51],0.65
same,binding signal (normalized ELISA),[52],0.36
same,binding signal (normalized ELISA),[53],0.43
same,binding signal (normalized ELISA),[54],0.15
same,binding signal (normalized ELISA),[55],0.16
same,binding signal (normalized ELISA),[56],0.05
same,binding signal (normalized ELISA),[57],0.12
ACGCCGTGGAAAGGC (double strand) [101235 site],activity,[58],8.1 % NHEJ
ACCGCTGTGCTCCTGGC (double strand) [101234 site],activity,[59],10 % NHEJ
TTATTTGAAGAAACT (double strand) [101388 site],activity (relative DLSSA units),[60],7.6
GCAGCTGCCCAGACCT (double strand) [101124 site],activity,[61],2.2 % NHEJ
GGGCTCTCCCATGCAT (double strand) [101139 site],activity,[62],6.7 % NHEJ
GGCACTCCGCACCCCCA (double strand) [101231 site],activity,[63],10 % NHEJ
ACGCCGTGGAAAGGCC (double strand) [101236 site],activity,[64],9.2 % NHEJ
GCTCCTGGCCCTTGCA (double strand) [101233 site],activity,[65],13.3 % NHEJ
TTTGAAGAACTATATT (double strand) [101390 site],activity (relative DLSSA units),[66],9.7
ATGAGCGGCCCCGCC (double strand) [101239 site],activity,[67],13.1 % NHEJ
TGAACTAGTGGGAGTGTT (double strand) [101393 site],activity (relative DLSSA units),[68],9.9
GGCACTCCGCACCCC (double strand) [101230 site],activity,[69],4.9 % NHEJ
